Experimental data taken from US20150273076A1, “SP1 POLYPEPTIDES, MODIFIED SP1 POLYPEPTIDES AND USES THEREOF” (Fulcrum SP Ltd., priority 2006, published 2015).
In brackets after ≈: the same amount, converted by molar mass.

B1: Δ2-6 E72C: SP1 Loop 4 modification Δ2-6 E72C, SEQ ID NO:20 (protein)
chain: MKLVKHTLLTRFKDEITREQIDNYINDYTNLLDLIPSMKSFNWGTDLGMESAELNRGYTHAFESTFCSKSGLQEYLDSAALAAFAEGFLPTLSQRLVIDYFLY
modifications: Sp1 mutant variant amino acids 2-6 deleted and E72C mutated
B2: 42-6 S73C: SP1 Loop 4 modification, printed 42-6 S73C, SEQ ID NO:21 (protein)
chain: MKLVKHTLLTRFKDEITREQIDNYINDYTNLLDLIPSMKSFNWGTDLGMESAELNRGYTHAFESTFECKSGLQEYLDSAALAAFAEGFLPTLSQRLVIDYFLY
modifications: Sp1 mutant variant amino acids 2-6 deleted and S73C mutated
B3: Cys2 K18R Gly19: Insertion of Cys residue in position 2 and of glycine residue in position 19, K18R (Cys2loop1RGd), SEQ ID NO:11 (protein)
chain: MCATRTPKLVKHTLLTRFRGDEITREQIDNYINDYTNLLDLIPSMKSFNWGTDLGMESAELNRGYTHAFESTFESKSGLQEYLDSAALAAFAEGFLPTLSQRLVIDYFLY
modifications: Sp1 mutant variant Cys inserted into position 2, K18R mutated and a Gly inserted into position 19
B4: CRGD2: SP1 fusion protein with N-terminal tumor specific peptide CRGD, SEQ ID NO:5 (protein)
chain: MCRGDATRTPKLVKHTLLTRFKDEITREQIDNYINDYTNLLDLIPSMKSFNWGTDLGMESAELNRGYTHAFESTFESKSGLQEYLDSAALAAFAEGFLPTLSQRLVIDYFLY
modifications: Sp1 mutant variant Cys, Arg, Gly and Asp inserted into position 2
B5: RGDC2: SP1 fusion protein with N-terminal peptide RGDC, SEQ ID NO:6 (protein)
chain: MRGDCATRTPKLVKHTLLTRFKDEITREQIDNYINDYTNLLDLIPSMKSFNWGTDLGMESAELNRGYTHAFESTFESKSGLQEYLDSAALAAFAEGFLPTLSQRLVIDYFLY
modifications: Sp1 mutant variant Arg, Gly, Asp and Cys inserted into position 2

Key:
[1] = tested on: Human colon adenocarcinoma (HT-29) cells; test: In-vitro cytotoxicity in HT-29 cells; assay type: cell-based
Source text: FIGS. 24a and 24b are graphs illustrating the in-vitro cytotoxic effects of SP1-DOX complex. FIG. 24a—HT-29 cells cultured in 96 well microtiter plates were exposed to uncomplexed DOX (closed oval, magenta) or SP1-DOX complex (closed triangle, blue) prepared as described in FIGS. 9-15, at the indicated concentrations. FIG. 24b—HT-29 cells were exposed to uncomplexed SP1 (without DOX) (closed diamond, blue) or SP1-DOX complex (closed triangle, yellow) at indicated concentrations. Proportion of living cells was determined by MTT assay, and the IC50 was calculated.
HT-29 cells were prepared as in FIG. 24 above.
Human colon adenocarcinoma (HT-29) cells. The cells were grown in 50-ml flasks containing DMEM medium (Biological Industries, Bet Haemek), supplemented with 10% fetal calf serum, 1% glutamine and 1% Antibiotic-Antimicotic solution (Biolab, Israel). The cells were trypsinizated, and 2 ml medium containing 5×10^4 cells were plated in each well of a 6-wells plate. SP1, drugs or SP1-complexed with drugs was added at the indicated concentrations. The cells were incubated at 37° C. in a humidified atmosphere containing 5% CO2.After 48 hours the medium in the presence or absence of drugs was replaced in each well respectively, to maintain a constant supply of ingredients and drugs. After four days the medium was removed and the number of viable cells in the cultures was determined by spectroscopy.
The human colorectal adenocarcinoma cell line, HT-29, was used to evaluate the biological activity of the SP1-DOX complex, compared to that of the free drug and un-complexed SP1 protein. […] Thus, the SP1-DOX complex is at least as biologically active as free DOX.

[2] = Heat stability (no precipitation after heat treatment); conditions: 10 min at 100° C. or 30 min at 85° C.
[3] = Oligomeric complex formation by SDS PAGE (unboiled samples); conditions: for Complex Formation: SDS PAGE, samples not boiled in the application buffer; for oligomeric complex formation, stability and resistance: boiling and protease stability
Protocol: SP1 (20 μg) was prepared in SDS sample buffer at different SP1-monomer: SDS molar ratios and boiled (or not) (5 mM) prior to SDS-PAGE analysis. Heat stability of SP1 oligomer (10 μg) was tested in the same buffer at SP1-monomer: SDS=1:1733 and heated for 1 to 10 mM at different temperatures.
Purified 6HSP1 and ΔNSP1 were first denatured to the monomeric forms by boiling the proteins in SDS sample buffer. The denatured proteins were then separated in preparative SDS-PAGE, and visualized by Coomassie blue staining. The monomeric forms of two recombinant protein bands were excised. Gel slices that carried monomeric form of 6HSP1 (SEQ ID NO:7) and ΔNSP1 (SEQ ID NO:2) were mixed at 1:1 ratio (v/v). In order to enhance the surface/volume ratio, the gel slices were pulverized using a pestle and mortar in the presence of liquid nitrogen. […] The hetero-oligomeric complex was isolated by subjecting the eluated protein to Ni-NTA Agarose beads and the bound proteins were eluted by 400 mM imidazole using a standard procedure (Sigma protocol for P 6611). […] The composition of hetero-oligomeric SP1 was determined by SDS-PAGE and visualized by silver staining.

[4] = Doxorubicin complex formation and release (ultrafiltration, HPLC, SDS PAGE fluorescence); assay type: binding; conditions: reducing conditions (DTT or GSH)
Protocol: Pure wild type SP1 or Cys2 SP1 mutant (1.5 mg/ml in 20 mM Sodium Phosphate buffered, pH=6.8) were incubated overnight at room temp, with DOX 1 mg/ml in the presence of DTT (10 mM), with gentle rolling. Binding reaction was stopped by adding hydrogen peroxide (0.01%), followed by ultra filtration (using 30 kD cutoff filter) and extensive wash until follow-through become colorless. Optical density was measured at both 278 and 477 nm using nanodrop spectrophotometer. Note the dramatic effect of the reducing agent on drug binding by the Cys2 SP1, compared to the absence of effect on the wild type SP1.
FIG. 13 is a histogram illustrating the redox-dependent release of Doxorubicin by Cys2 SP1. Doxorubicin (DOX) was complexed within Cys2 SP1 as described in FIGS. 9-12 above. Release of the drug in the presence of 0, 2 and 20 mM GSH was measured by ultrafiltration and size exclusion HPLC analysis (detection at 228 and 475 nm);
FIG. 14 is a histogram illustrating the effect of oxidation on DOX complex formation by Cys2 SP1. Doxorubicin (DOX) was reacted with Cys2 SP1 and wild type SP1 as described in FIGS. 9-13 above. Oxidized protein indicates exposure to excess of H2O2 prior to treatment with GSH. DOX complex formation was measured by ultrafiltration and size exclusion HPLC analysis (detection at 228 and 475 nm). […] 1=the retentate; 2=the flow through; and 3=a DOX standard 20 μg/ml.
FIG. 17 is a photograph of a fluorescent PAGE analysis illustrating effective complex formation with DOX by Cys2 and SP1 fusion proteins. Recombinant wild type (lanes 1 and 2), Cys2 (lanes 3 and 4), and SP1 fusion proteins having additional N-terminal tumor specific peptide RGD (CRGD, SEQ ID NO:151; fusion protein is SEQ ID NO: 5)(lanes 5 and 6), or RGD in reverse order (RGDC, SEQ ID NO: 152; fusion protein is SEQ ID NO: 6)(lanes 7 and 8) were reacted with DOX to form complex as described in FIGS. 9-14 above, and then separated on SDS-PAGE with (lanes 2, 4, 6 and 8) or without (lanes 1, 3, 5 and 7) denaturation by boiling in LSB.
Ultrafiltration was used for the detection of complex formation with the water soluble ligands FA and DOX which have a distinctive absorption properties and can be determined by spectroscopic measurements. […] Several additional washing cycles remove all remaining free FA and DOX, and the ligand-SP1 complex remains in the retained fraction.
Size exclusion chromatography is a common method for separation of molecules of different sizes under mild conditions and was employed to test FA and DOX complex formation under mild conditions. SP1 is eluted from the column after 7 min and is detected at 278 nm only, and free FA is eluted from the column (TSK G3000 SWXL, Tosohaas) after 16 min and is detected at 490 nm. The SP1-FA and SP1-DOX complexes also eluted at the same time but is detected also at 490 and 475 nm, respectively. DOX/SP1 ratio is determine from the standard curve obtained in solution.
Reverse phase HPLC (RP-HPLC) analysis separates between free DOX, PXT, and SP1. Both compounds bind to the resin (C-18) and are eluted at different acetonitrile concentrations, and detected at both 278 and 225 nm (SP1), 225 nm (PTX) and 477 nm (DOX).
Pyrogen free Cys2 SP1 variant (SEQ ID NO:3) in 20 mM (Na Phosphate buffer pH-6.7) final 2 mg/ml was diluted with DOX solution (Teva, Israel) 1:2 dilution final 1 mg/ml. Where indicated, GSH was added, and the solution is mixed overnight. Where indicated (oxidized), H2O2 is added to 0.1%, buffer added to 3× volume, and the solution is sonicated (3×22 sec. 1:1 pulse/pause at 3% amplitude 0.5 min. pause, using a Vibra-Cell 750 W sonicator).

Molecule	Heat stability [2]	Complex Formation [3]	oligomeric complex formation, stability and resistance [3]	DOX complex formation [4]	other results
CC(=O)O[C@H]1C(=O)[C@@]2(C)[C@H]([C@H](OC(=O)c3ccccc3)[C@]3(O)C[C@H](OC(=O)[C@H](O)[C@@H](NC(=O)c4ccccc4)c4ccccc4)C(C)=C1C3(C)C)[C@]1(OC(C)=O)CO[C@@H]1C[C@@H]2O [PTX, paclitaxel]	–	–	–	–	IC50 ([1]; Homo sapiens, HT-29 cells, dose inhibiting 50% of cell growth, read-out: IC50): ~0.01 µg/mL (≈ 0.0117 µM); biological activity after storage in aqueous solution ([1]; at least 3 weeks storage in aqueous solution): becomes inactive
B1	+	10	–	–	–
B2	+	11	–	–	–
B3	+	–	formed a boiling stable and protease resistant dodecamer	–	–
B4	+	–	formed a boiling stable and protease resistant dodecamer	effective binding	oligomeric complex formation, stability and resistance ([3]; listed as CRGD SP1): formed homo- and hetero-oligomeric complexes
B5	+	–	formed a boiling stable and protease resistant dodecamer	effective binding	oligomeric complex formation, stability and resistance ([3]; listed as RGDC SP1): formed homo- and hetero-oligomeric complexes
